Results published in article PMC4354016, “Centromeric binding and activity of Protein Phosphatase 4” (Nature Communications, 2015).

T1: recombinant Flfl^1–168 (untagged) (Drosophila melanogaster, UniProt Q9VFS5 1-168)
T1 construct: pETDuet-1 (MCS1), TEV site between His tag and Flfl; source: E. coli Rosetta2(DE3)pLysS, purified (Ni-NTA, TEV cleavage, re-incubation with Ni-NTA); not shown: 6xHis, N-terminal, cleaved
T1 sequence (looked up): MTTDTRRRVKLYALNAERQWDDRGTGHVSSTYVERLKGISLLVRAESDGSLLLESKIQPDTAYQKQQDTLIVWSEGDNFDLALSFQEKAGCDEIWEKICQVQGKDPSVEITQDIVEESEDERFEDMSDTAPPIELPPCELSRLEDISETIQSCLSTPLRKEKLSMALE

T2: Flfl^1–122 (Drosophila melanogaster, UniProt Q9VFS5 1-122)
T2 construct: Falafel (Flfl) residues 1-122, holds the EVH1 domain; residues 4-114 are in the final model; also called Falafel (1–122); His::TEV::Flfl^1–122aa; source: E. coli BL21 (DE3) RIL, purified (HisTrap, TEV cleavage, anion exchange, SEC); not shown: 6xHis, N-terminal, cleaved
T2 sequence (looked up): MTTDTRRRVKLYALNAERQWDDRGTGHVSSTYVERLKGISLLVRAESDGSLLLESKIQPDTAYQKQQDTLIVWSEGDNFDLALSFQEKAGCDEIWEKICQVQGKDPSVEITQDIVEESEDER


Legend:
Details in all cases: both partners purified
[1] = biological target: T1, recombinant Flfl^1–168 (untagged); assay: SEC; Flfl^1–168 and CENP-C^FBD mixed ~1:1 molar ratio, 16 h on ice, Superdex 200; fractions on SDS-PAGE, Coomassie
[2] = biological target: T2, Flfl^1–122; assay: crystal structure; Flfl^1–122 at 22 mg/ml incubated overnight with FIM peptide 1:1.3, sitting drop, ammonium sulfate; 1.5 Å
[3] = biological target: T1, recombinant Flfl^1–168 (untagged); assay: peptide or protein array; substitution array: every residue of the 19-mer FIM replaced by the other amino acids, on cellulose membrane; 100 nM untagged Flfl^1–168, 4 °C overnight; anti-Flfl detection

binding result [1]	binding result [2]	binding result [3]	Binder
binds			recombinant CENP-C^FBD (untagged) (domain or fragment, Drosophila melanogaster, UniProt Q9VHP9 1002-1093, looked up, pETDuet-1 (MCS1), TEV site between His tag and FBD; also called His::TEV::CENP-C^FBD; source: E. coli Rosetta2(DE3)pLysS, purified (Ni-NTA, TEV cleavage, re-incubation with Ni-NTA); not shown: 6xHis, N-terminal, cleaved) IDQNSDDVPSRNPSPSRTLLSDDVPSTSRAALEFLQRSQNMSKSRPPDESSADVVFKKPLAPAPRAKSKKGKSEVDKLKLAKMPVEAEELNT
	binds	binds	PDESSADVVFKKPLAPAPR (source: synthetic peptide (in solution for crystallisation; spotted onto a cellulose membrane for the substitution array)) [CENP-C^FIM peptide]
